This note sets out measurements from patent publication US11339209B2, “Compositions, methods, and therapeutic uses related to fusogenic protein minion” (NOVARTIS AG, priority 2016, dated 2022).

One assay concerns 10T1/2 fibroblasts. Briefly: Heterologous co-expression, syncytia formation between fibroblasts. Type of assay: cell-based. Particulars: retroviral expression in 10T1/2 fibroblasts, growth medium. How it is done: In order to infect C2C12 cells and 10T1/2 cells, neat virus was incubated with 8 μg/ml polybrene at 37° C. for 10 min and then added to the cells, which were then incubated for 15 min at 37° C. One round of spin infection was performed using 24-well or 12-well plates at 1100 g for 1-1.5 hours and 32° C. After 4-6 hours, fresh neat virus with polybrene was added and a second round of spin infection was performed. Fresh medium was added to the infected cells to dilute the polybrene. […] Infection efficiency of this two-round infection method was generally >95% over a large range of viral concentrations, therefore FACS was not generally necessary. This strong GFP signal was used to mark the boundary of cells, in addition to phase contrast imaging and nuclear markers (FIGS. 22, 23A-23F); moreover, in cells that were fixed with 4% PFA but not permeabilized with detergents, the GFP signal was higher in the nuclear region, allowing unambiguous delineation of both the cell boundary and nuclei. […]
(§1) Cell labeling was performed according to manufacturer's instructions with slight modifications. […] After the last wash, the cells were counted and diluted to the concentration needed for the final mixing experiment in a 384-well or 24-well plate, and were incubated at 37° C. for 30 min. […]

A further assay addresses T1, Myomaker (Mus musculus, UniProt Q9D1N4).
T1 construct: endogenous in cells; host or cells: Differentiating muscle cells
T1 sequence (Q9D1N4 1-221): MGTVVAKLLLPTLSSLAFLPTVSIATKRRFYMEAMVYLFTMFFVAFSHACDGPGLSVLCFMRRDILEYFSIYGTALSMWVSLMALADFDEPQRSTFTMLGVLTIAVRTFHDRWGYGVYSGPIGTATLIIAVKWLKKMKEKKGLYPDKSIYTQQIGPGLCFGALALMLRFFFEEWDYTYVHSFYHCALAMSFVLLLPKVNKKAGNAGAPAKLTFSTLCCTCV
Briefly: Co-immunoprecipitation of Minion with Myomaker in differentiating muscle cells. Type of assay: binding. Particulars: tagged and untagged Minion, endogenous and overexpressed Myomaker.

The test system of the next assay is C2C12 myoblasts. Nature of the assay: Cell mixing of 10T1/2 fibroblasts with differentiating C2C12 myoblasts. Type of assay: cell-based, mouse. Particulars: 10T1/2 fibroblasts mixed with wild-type C2C12 myoblasts (1:2), 3 days in differentiation medium.
Source text: Differentiating myoblasts and myotubes are marked by MHC. 10T1/2 fibroblasts were infected with retrovirus expressing GFP and proteins of interest (left, NanoLuc control; middle, mouse Myomaker; right, mouse Minion). DAPI marks nuclei. […] White arrows indicate MHC-positive myotubes that are not fused to fibroblasts. n=2 (eight technical replicates each). 0.7 mm×0.7 mm fields are shown. […] 0.7 mm×0.7 mm fields at ×20 magnification are shown. Control and Minion^KD myoblasts were used. Differentiating myoblasts and myotubes are marked by MHC. 10T1/2 fibroblasts expressing Myomaker were labelled with CellTrace Violet dye before mixing. […]
as §1
C3H 10T1/2 fibroblasts were infected with retroviruses encoding GFP and either control, Myomaker or Minion; GFP-positive fibroblasts were then mixed with wild-type C2C12 myoblasts and kept in differentiation medium for 3-4 days. Differentiating myoblasts and myotubes were marked by MHC expression, and fusion of GFP-positive fibroblasts to myotubes was readily detected when Myomaker, but not Minion or control, was expressed (FIG. 28A).

The subject of the next assay is MINION^KD C2C12 cells. Briefly: In vitro reconstitution (complementation) assay of the fusion defect in MINION^KD C2C12 cells. Particulars: retroviral cDNA expression, 5 days in differentiation medium, MHC immunofluorescence, MINION tested tagged and untagged. Type of assay: cell-based, mouse. How it is done: For primary myoblasts derived from both embryos and adult mice, around 3000 cells in 50 μl myoblast growth medium (1:1 mixture of DMEM low glucose and Ham's F-10 Nutrient Mix; 20% (v/v) FBS; freshly added 2.5 ng/ml rhFGF) were seeded into each well of a 384-well Collagen-coated PerkinElmer CellCarrier™ plate (6007550) for imaging purposes. The next day, differentiation medium (DMEM high glucose (Gibco® 11995073) with 3% to 5% horse serum) was added to the cells (DM day 0). Differentiation medium was replaced daily. The cells were fixed at DM day 3 and day 4 for immunofluorescence staining. For C2C12 cells, ˜1500-2000 cells were seeded into each well of a 384-well plate (DMEM high glucose with 10% FBS) and around 2×10^5 cells were seeded into each well of a 6-well plate, using C2C12 growth medium (DMEM high glucose with 10% FBS). On the next day, differentiation medium (DMEM high glucose with 2% horse serum) was added to the cells (DM day 0), and differentiation medium was likewise replaced daily. […]
For the cloning of cDNA constructs, the coding sequences (CDS) of mouse MINION (for the 84 aa isoform), human MINION ortholog, mouse tmem8c (myomaker), nanoluc (control A), luciferase (control B), mouse MINION with 1 bp insertion, human MINION with 1 bp deletion, and mouse MINION truncation (39 aa form) were synthesized (IDT) with attB sites at both ends and a consensus Kozak sequence (5′ GCCACC (SEQ ID NO: 94)) before the start codon. […] After expression testing of the two 3F1H-tagged mouse and human MINION constructs, it was noticed that two bands were detected by Western blot with anti-FLAG antibody (FIG. 16). […]
To examine the knockdown efficiency of the mouse MINION transcript, shRNA-encoding lentiviruses were used to infect C2C12 cells. […] Based on an estimated viral titer of 1×10^8 vp/ml (as measured on 293T cells), a virus amount equivalent to MOI30 on 293T cells was used on C2C12 cells. […] Infection efficiency of 70-85% was routinely achieved as judged by FACS analysis, though GFP signal in undifferentiated C2C12 cells was barely discernable by EVOS fluorescence microscopy. […]

B1: mouse MINION: 84 aa mouse microprotein inducer of fusion, expressed from retroviral cDNA, untagged or C-terminally 3×FLAG-1×HA-tagged (protein, listed as Mus musculus)
chain: MPVPLLPMVLRSLLSRLLLPVARLARQHLLPLLRRLARRLSSQDMREALLSCLLFVLSQQQPPDSGEASRVDHSQRKERLGPQK
Take B1: the “cell fusion between fibroblasts (multinuclear syncytia)” value with 10T1/2 fibroblasts is listed as “neither Myomaker nor Minion alone (FIG. 21D) was sufficient”. Moreover, the “physical interaction with Myomaker (co-immunoprecipitation, western blot)” value in the assay with Myomaker is “no detectable physical interaction”. Further, in the assay on C2C12 myoblasts, the “fusion of fibroblasts expressing the protein to wild-type differentiating myoblasts and myotubes” value was “failed to do so”. Further, the “rescue of the cell fusion defect” value in the assay with MINION^KD C2C12 cells is “robustly rescued fusion”.

B2: Myomaker: muscle-specific transmembrane protein; mouse tmem8c CDS expressed from retroviral vector (protein)
chain: T1 sequence (Q9D1N4 1-221)
B2: the “cell fusion between fibroblasts (multinuclear syncytia)” value in the assay on 10T1/2 fibroblasts was “neither Myomaker nor Minion alone (FIG. 21D) was sufficient”. Further, the “fusion of fibroblasts expressing the protein to wild-type differentiating myoblasts and myotubes” value with C2C12 myoblasts was “fused with wild-type differentiating myoblasts and myotubes”. Further, the “rescue of the cell fusion defect” value in the assay with MINION^KD C2C12 cells is on record as “incapable of rescuing the fusion defect”.

B3: human Minion: human ortholog of MINION, 84 codon ORF, expressed from retroviral cDNA, untagged or C-terminally epitope-tagged (protein, listed as Homo sapiens)
chain: MPTPLLPLLLRLLLSRLLLPAARLARQYLLPLLRRLARRLGSQDMREALLGCLLFILSQRHSPDAGEASRVDRLERRERLGPQK
Regarding B3, the “rescue of the cell fusion defect” value in the assay on MINION^KD C2C12 cells is reported as “strongly reconstituted cell fusion”.
